Reference: patent US20260098095A1 (Hoffmann-La Roche, published 2026)

How the values were obtained:
[1] = molecular target: T1, HLA-A2/MAGE-A4 peptide MHC (pMHC) complex on cells (human); experiment: cell-based or functional assay
[2] = molecular target: T2, HLA-A2/MAGE-A4p230-239 complex (human); experiment: SPR Biacore T200, antibody captured by anti-human Fc, pMHC complex as analyte, 25 C, 1:1 Langmuir fit
T2 construct: also called HLA-A2/MAGEp230-239
Protocol: The dissociation phase was monitored for 240 s and triggered by switching from the sample solution to HBS-EP+. The chip surface was regenerated after every cycle using an injection of 3M MgCl₂ at 10 μl/min for 30 sec. Bulk refractive index differences were corrected for by subtracting the response obtained on the reference flow cell which contains the anti-human Fc antibody, but without HLA-A2/MAGE-A4 antibody captured on it. The affinity constants were derived from the kinetic rate constants by fitting to a 1:1 Langmuir binding using the BIAeval software (GE Healthcare). The measurement was performed in triplicate with independent dilution series.

[3] = molecular target: T1, HLA-A2/MAGE-A4 peptide MHC (pMHC) …; experiment: cell-based or functional assay; remark: listed apart in the source
gutQ = gutQ (human); experiment: cell-based or functional assay
CRMP1 = CRMP1 (human); experiment: cell-based or functional assay
SLC45A1 = SLC45A1 (human); experiment: cell-based or functional assay
pfkA = pfkA (human); experiment: cell-based or functional assay
MTOR = MTOR (human); experiment: cell-based or functional assay
ARF3 = ARF3 (human); experiment: cell-based or functional assay
KDM1A = KDM1A (human); experiment: cell-based or functional assay
UBE2V2 = UBE2V2 (human); experiment: cell-based or functional assay
[4] = molecular target: HLA-A2 with peptide MAGA10 on T2 cells (human); experiment: cell-based or functional assay
DPYSL3 = DPYSL3 (human); experiment: cell-based or functional assay
EDC3 = EDC3 (human); experiment: cell-based or functional assay
CCS = CCS (human); experiment: cell-based or functional assay
ARF1 = ARF1 (human); experiment: cell-based or functional assay
DPYSL4 = DPYSL4 (human); experiment: cell-based or functional assay
[5] = molecular target: HLA-A2 with peptide MAGB6 on T2 cells (human); experiment: cell-based or functional assay
PIGG = PIGG (human); experiment: cell-based or functional assay
MAGEB2 = MAGEB2 (human); experiment: cell-based or functional assay
GAPDHS = GAPDHS (human); experiment: cell-based or functional assay
VPS13D = VPS13D (human); experiment: cell-based or functional assay
DYNC1H1 = DYNC1H1 (human); experiment: cell-based or functional assay
FBXO34 = FBXO34 (human); experiment: cell-based or functional assay
URB1 = URB1 (human); experiment: cell-based or functional assay
KEAP1 = KEAP1 (human); experiment: cell-based or functional assay
BNRF1 = BNRF1 (human); experiment: cell-based or functional assay
UNC80 = UNC80 (human); experiment: cell-based or functional assay
PKP1 = PKP1 (human); experiment: cell-based or functional assay
[6] = molecular target: T1, HLA-A2/MAGE-A4 peptide MHC (pMHC) …; experiment: cell-based or functional assay; remark: listed apart in the source
T9A = T9A (human); experiment: cell-based or functional assay
[7] = molecular target: T1, HLA-A2/MAGE-A4 peptide MHC (pMHC) …; experiment: cell-based or functional assay; remark: listed apart in the source
D4A = D4A (human); experiment: cell-based or functional assay
V10A = V10A (human); experiment: cell-based or functional assay
E7A = E7A (human); experiment: cell-based or functional assay
G5A = G5A (human); experiment: cell-based or functional assay
G1A = G1A (human); experiment: cell-based or functional assay
H8A = H8A (human); experiment: cell-based or functional assay
Y3A = Y3A (human); experiment: cell-based or functional assay
R6A = R6A (human); experiment: cell-based or functional assay
V2A = V2A (human); experiment: cell-based or functional assay
[8] = molecular target: T1, HLA-A2/MAGE-A4 peptide MHC (pMHC) …; experiment: cell-based or functional assay; remark: listed apart in the source
[9] = molecular target: T1, HLA-A2/MAGE-A4 peptide MHC (pMHC) …; experiment: cell-based or functional assay; remark: listed apart in the source

B1: Molecule R (bispecific antibody, human IgG1, kappa, L234A L235A)
heavy 1: not shown
heavy 2: AQLVESGGGLVQPGGSLRLSCAASAYFSFKAMSWVRQAPGKGLEWVGSISPSGGSTYYNDNVLGRFTISRDNSKNTLYLQMNSLRAEDTAVYYCAKDVGFFDEWGQGTLVTVSSASTKGPSVFPLAPSSKSTSGGTAALGCLVEDYFPEPVTVSWNSGALTSGVHTFPAVLQSSGLYSLSSVVTVPSSSLGTQTYICNVNHKPSNTKVDEKVEPKSCDKTHTCPPCPAPEAAGGPSVFLFPPKPKDTLMISRTPEVTCVVVDVSHEDPEVKFNWYVDGVEVHNAKTKPREEQYNSTYRVVSVLTVLHQDWLNGKEYKCKVSNKALGAPIEKTISKAKGQPREPQVCTLPPSRDELTKNQVSLSCAVKGFYPSDIAVEWESNGQPENNYKTTPPVLDSDGSFFLVSKLTVDKSRWQQGNVFSCSVMHEALHNHYTQKSLSLSP
light 1: DIQMTQSPSSLSASVGDRVTITCRASQSISSYLAWYQQKPGKAPKLLIYDASIRDIGVPSRFSGSGSGTDFTLTISSLQPEDFATYYCQQYSSYPYTFGQGTKLEIKRTVAAPSVFIFPPSDRKLKSGTASVVCLLNNFYPREAKVQWKVDNALQSGNSQESVTEQDSKDSTYSLSSTLTLSKADYEKHKVYACEVTHQGLSSPVTKSFNRGEC
light 2: EVQLVESGGGLVQPGGSLRLSCAASGYSFTGYTMNWVRQAPGKGLEWVALINPYKGVSTYNQKFKDRFTISVDKSKNTAYLQMNSLRAEDTAVYYCARSGYYGDSDWYFDVWGQGTLVTVSSASVAAPSVFIFPPSDEQLKSGTASVVCLLNNFYPREAKVQWKVDNALQSGNSQESVTEQDSKDSTYSLSSTLTLSKADYEKHKVYACEVTHQGLSSPVTKSFNRGEC
EC50 [pM], T-cell mediated lysis of A375 HLA-A2 overexpressing cells, 24 h [1]: 0.08 pM | EC50 [pM], T-cell mediated lysis of A375 cells, 24 h [1]: 0.6 pM | Kd [2]: 13.1 nM | koff [2]: 0.0436 s⁻¹ | kon [2]: 3.33e+06 M⁻¹ s⁻¹ | EC50 (nM), T-cell mediated lysis of A375 cells, 48 h [3]: 1.47 nM | EC50 (nM), T-cell mediated lysis of NCI-H2023 cells, 48 h [3]: 1.06 nM | EC50 (nM), T-cell mediated lysis of UMUC-3 cells, 48 h [3]: 0.57 nM

B2: Molecule B (bispecific antibody, V domains shown)
VH 1: YPQLVESGGGLVKPGGSLRLSCAARYPFTRLDMSWVRQAPGKGLEWVGSISPKGGSTYYNDNVLGRFTISRDNSKNTLYLQMNSLRAEDTAVYYCARDWGFFDNWGQGTLVTVSS
VL 1: AIQMTQSPSSLSASVGDRVTITCRASQSISNYLAWYQQKPGKAPKLLIYNASHPEYDVPSRFSGSGSGTDFTLTISSLQPEDFATYYCQQYSSHPYTFGQGTKLEIK
VH 2: not shown
VL 2: QAVVTQEPSLTVSPGGTVTLTCGSSTGAVTTSNYANWVQEKPGQAFRGLIGGTNKRAPGTPARFSGSLLGGKAALTLSGAQPEDEAEYYCALWYSNLWVFGGGTKLTVL
% of MAGE-A4 signal, Jurkat-NFAT (gutQ): 1.11% | % of MAGE-A4 signal, Jurkat-NFAT; grey (>2%) (CRMP1): 67.5% | % of MAGE-A4 signal, Jurkat-NFAT (SLC45A1): 1.22% | % of MAGE-A4 signal, Jurkat-NFAT (pfkA): 1.1% | % of MAGE-A4 signal, Jurkat-NFAT (MTOR): 0.59% | % of MAGE-A4 signal, Jurkat-NFAT (ARF3): 1.59% | % of MAGE-A4 signal, Jurkat-NFAT (KDM1A): 1.04% | % of MAGE-A4 signal, Jurkat-NFAT (UBE2V2): 1.37% | % of MAGE-A4 signal, Jurkat-NFAT; grey (>2%) [4]: 10.6% | % of MAGE-A4 signal, Jurkat-NFAT; grey (>2%) (DPYSL3): 112% | % of MAGE-A4 signal, Jurkat-NFAT (EDC3): 0.63% | % of MAGE-A4 signal, Jurkat-NFAT; grey (>2%) (CCS): 10.8% | % of MAGE-A4 signal, Jurkat-NFAT (ARF1): 1.14% | % of MAGE-A4 signal, Jurkat-NFAT; grey (>2%) (DPYSL4): 53.1% | % of MAGE-A4 signal, Jurkat-NFAT; grey (>2%) [5]: 57.9% | % of MAGE-A4 signal, Jurkat-NFAT (PIGG): 1.46% | % of MAGE-A4 signal, Jurkat-NFAT (MAGEB2): 1.58% | % of MAGE-A4 signal, Jurkat-NFAT (GAPDHS): 1.37% | % of MAGE-A4 signal, Jurkat-NFAT (VPS13D): 1.8% | % of MAGE-A4 signal, Jurkat-NFAT (DYNC1H1): 0.85% | % of MAGE-A4 signal, Jurkat-NFAT (FBXO34): 0.91% | % of MAGE-A4 signal, Jurkat-NFAT; grey (>2%) (URB1): 67.9% | % of MAGE-A4 signal, Jurkat-NFAT (KEAP1): 1.07% | % of MAGE-A4 signal, Jurkat-NFAT (BNRF1): 1.05% | % of MAGE-A4 signal, Jurkat-NFAT (UNC80): 0.98% | % of MAGE-A4 signal, Jurkat-NFAT (PKP1): 0.94% | EC50 [pM], T-cell mediated lysis of IM-9 cells, 24 h [6]: 1080 pM | EC50 [pM], T-cell mediated lysis of NCI-H1755 cells, 24 h [6]: 168 pM | EC50, Jurkat-NFAT activation (T9A): 0.426 nM | EC50, Jurkat-NFAT activation [7]: 0.189 nM | EC50, Jurkat-NFAT activation (D4A): 191 nM | EC50, Jurkat-NFAT activation (V10A): 1.01 nM | EC50, Jurkat-NFAT activation (E7A): 3.48 nM | EC50, Jurkat-NFAT activation (G5A): 0.181 nM | EC50, Jurkat-NFAT activation (G1A): 141 nM | EC50, Jurkat-NFAT activation (H8A): 0.717 nM | EC50, Jurkat-NFAT activation (Y3A): 27.9 nM | EC50, Jurkat-NFAT activation (R6A): 45.5 nM | EC50, Jurkat-NFAT activation (V2A): 0.258 nM | EC50 [pM] 24 h, T-cell mediated lysis of MAGE-A4 peptide pulsed T2 cells [8]: 72.8 pM | EC50 [pM], activation of Jurkat-NFAT reporter cells (luminescence, 6 h) with MAGE-A4 peptide pulsed T2 cells [9]: ~8310 pM
